The DeepSol protein solubility set

Assay: soluble on expression in E. coli; label from the status in PepcDB or PDB records
In the case of “HHHHHHSKEELLKLTETVVTEYLNSGNANEAVNGVREMRAPKHFLPEMLSKVIILSLDRSDEDKEKASSLISLLKQEGIATSDNFMQAFLNVLDQCPKLEVDIPLVKSYLAQFAARAIISELVSISELAQPLESGTHFPLFLLCLQQLAKLQDREWLTELFQQSKVNMQKMLPEIDQNKDRMLEILEGKGLSFLFPLLKLEKELLKQIKLDPSPQTIYKWIKDNISPKLHVDKGFVNILMTSFLQYISSEVNPPSDETDSSSAPSKEQLEQEKQLLLSFKPVMQKFLHDHVDLQVSALYALQVHCYNSNFPKGMLLRFFVHFYDMEIIEEEAFLAWKEDITQEFPGKGKALFQVNQWLTWLETA”, the “soluble on expression in E. coli” value is reported as “soluble”.
With “HHHHHHSVFEDDLPFLEFTGSIVYSYDASDCSFLSEDISMSLSDGDVVGFDMEWPPLYNRGKLGKVALIQLCVSESKCYLFHVSSMSVFPQGLKMLLENKAVKKAGVGIEGDQWKLLRDFDIKLKNFVELTDVANKKLKCTETWSLNSLVKHLLGKQLLKDKSIRCSNWSKFPLTEDQKLYAATDAYAGFIIYRNLEILDDTVQR” the “soluble on expression in E. coli” value was “soluble”.
For “HKEFAVTMRPTEASERCHLRGSYTLRAGESALELWGGPEPGTQLYDWPYRFLRRFGRDKVTFSFEAGRRCVSGEGNFEFETRQGNEIFLALEEAISAQKN”, the “soluble on expression in E. coli” value was “soluble”.
With “HLVCPMSKSPYVDPHKSGHEIWEEFSMSFTPAVKEVVEFAKRIPGFRDLSQHDQVNLLKAGTFEVLMVRFASLFDAKERTVTFLSGKKYSVDDLHSMGAGDLLNSMFEFSEKLNALQLSDEEMSLFTAVVLVSADRSGIENVNSVEALQETLIRALRTLIMKNHPNEASIFTKLLLKLPDLRSLNNMHSEELLAFKVHP” the “soluble on expression in E. coli” value was “soluble”.
In the case of “HMSSGNASWFQAIKAKKLNTPPPKFEGSGVPDNENMKPSQQHGYWRRQARFKPGKGGRCPVPDAWYFYYTGTGPAADMNWGDTQDGIVWMAAKGADTKSRSNQGTRDPDKFDQYPLRFSDGGPDGNFRWDFIPL”, the “soluble on expression in E. coli” value is reported as “soluble”.
For “HQYFFAKLQEQQNRYAKYGETAYNLEPNIKNGPGGLRDLQILLSISKRHFKIKKLAEGIGYGFITDKEYEELKYCQNFLWRVRFALHMLAGKPEERLSFDYQVKLAQFFGYQDQSHILAIEQFMKDYFKVIKRNRELNEMLLQWFNETIVYHQKQKIIRLDDEFQLSNRFIEVRNNRVFKQNPQSILKLFYWLVKRPDIEGVRASTIRLI”, the “soluble on expression in E. coli” value was “not soluble”.
With “HRQLLSRDTHGFNVTVTSTIPEDAGLGDQEALIMAAALAFAHDYEDVHTAPIKAKFADVCFQASQAATGRPHVRARFDSALRGLASDLNIVDYSDGSVTHFPHPLNTQSDYAAFVVIPPVGAEQTAEVERRQAFITSAEKAFGTDSLRVLPDARERVIEWLQAVHEVCGTDDVPTITEAANWLEFMENETQAAINAAQAIKSRRHAACFDIVSESQRNLESLYTITTTDAMLSQLCLSRGAVSAR” the “soluble on expression in E. coli” value was “not soluble”.
With “HRRNATSLQLSRCANIADRTGLDALGGRRHSRRCPPPQRGLAAIKPLRQHRRRPVRSHIGGNQFADLPHQVDAFVHGKTDAVMLQPRQHAAKRGLRSIVRHFFIRQYRSLIIKRRAHTPGIRQLYRIAHCLRRPVLCGEPFYGFLFESNPLRLIEAV” the “soluble on expression in E. coli” value was “not soluble”.
With “HSLFPIPRMGDSAAKIVSPQEALPGRKEPLVVAAKHHVNGNRTVEPFPEGTQMAVFGMGCFWGAERKFWTLKGVYSTQVGFAGGYTPNPTYKEVCSGKTGHAEVVRVVFQPEHISFEELLKVFWENHDPTQGMRQGNDHGSQYRSAIYPTSAEHVGAALKSKEDYQKVLSEHGFGLITTDIREGQTFYYAEDYHQQYLSKDPDGYCGLGGTGVSCPL” the “soluble on expression in E. coli” value was “soluble”.
With “HYPKALDQLSEDRGYAFSYPTAAPCERLVWSISQSLMEGKEINALFDRINSSTKRDMVTKVSPKAPHTVVLVLGESARPDYMHSYGYPLENTPRLDSLLASGAAVQFDDVVSAKPNTQGSIAAMMSIGESRAGGKWYDDPMLIPLLRSAGYYTFWLSAQEKLGFAVQNVTAIAKLSDSTLFVFRGMDDVVLPNLMQRAEYQNLFEVVHLSGSHVSYQDRYPSEFGKFTSENLPSHHDESKDAVVAHYVNSLYYTDYILGEIERKYANEDAIIIYLSDHGQVLYDAPNNPNLVGHSFSQQGVSIPLFIYLSPSMRTKYPELIPRLQSIRSRRIMTDVLPYAIMGLLGIESPLYNPELDFWGTGYDEHRPRVIYSDDSSLVID” the “soluble on expression in E. coli” value was “not soluble”.
With “HYTSVPNIMKVIKPLFLDKLNQSFLDAYDDYTKLENLLTRIGKIKFFDPACGSGNFLIITYKELRRMEINIIKRLQELLGEYLYVPSVTLSQFYGIEIEDFAHDVAKLSLWIAEHQMNEELKNEVHNAVRPTLPLHTAGDIRCANAIRVEWTEVCPAQGSEEVYVFGNPPYLGSKKQNKEHKSDMLSIFGKVKNGKMLDYISAWFYFGAKYASTTNAKVAFVSTNSVTQGEQVSILWNELFKFGI” the “soluble on expression in E. coli” value was “not soluble”.
In the case of “IALGGGAAKGFAHIGVLKMLEANGLAPSVVAGTSAGSVVGALYASGMDSFKIQTKAVAMDESNIRDLRFFSGGLVQGQKLQNYVNELVGKRPIEKLNMPFGAIATRLEDGQRTMFVRGNVGEAVRASCSIPGVFEPVTIGAYHYVDGGITSPVPV”, the “soluble on expression in E. coli” value is reported as “not soluble”.
For “IAPTVWKLADRSKIYMADLESALHYILRIEVGRFPVLEGQRLVALKKFVAVLAKYFPGRPLVQNFLHSVNEWLKRQKRNKIPYSFFKTALDDRKEGAVLAKKVNWIGCQGSEPHFRGFPCSLWVLFHFLTVQAARQNVDHSQEAAKAKEVLPAIRGYVHYFFGCRDCASHFEQMAAASMHRVGSPNAAVLWLWSSHNRVNARLAGAPSEDPQFPKVQWPPRELCSACHNERLDVPVWDVEATLNFLKAHFSPSNIILDFPA”, the “soluble on expression in E. coli” value was “soluble”.
For “IDHIEVLRDGASARYGSDAIAGVINIILKSADHGGSISSKYGQYKKGDGIQRQVSGNTGFALGDNGTLNLSGEGANNDYTNRAGDDLRASSIGSTTYGQQVFRQGEPETHEGKLQYNAEYSFNDAAEFYSFGGYSKRRGETAAFYRPSNASNNIAAIYPNGYLPLIHGTLEDTTFVTGLRGELADDWHYDLSANYGKNSYELRTKTINTSLGLNTPRSFDNGTLTNDQKQLSLDLSREFNATWLPYPVSVAFGAEYLRQGYQIEAGQAESYFQTGSSGLGGFRAADAGSYSRHNFAQYLDVETNLTEKLGVSAAVRHEDYSDFGSNVSGSLSARYDFTP”, the “soluble on expression in E. coli” value was “not soluble”.
With “IGKVKYNLGFNLYDAKTKITKYNNETGLFGKDKNDKDTYRVGMELGEIWGYVTDRLYTVDDFDADGKLKAGIPKVEGYNPNPGDILYKDLDDNDIINGGTSTTKDPGDRKIIGNSTRRYQYGIHGGANWKGVSLSFLLQGVGKRDLWIMNDLFYPHYDAWTTVYDTQLNYWTPERTDSYFPRLYEKAAGNTAANTRIQTRYLQDGSYLSIRNITLSYNFPSKWMTKIGVNNLAVFFSGENLYTFDHLPKGLDPERSVTDDLGQRGFTYPYMRQYSFGINLSF” the “soluble on expression in E. coli” value was “not soluble”.
With “IGQVKYNIGGSLSDAWSKVLELANNENVPNEGKNENRLIGMPRQALYVYQTDGIFQSADEVAAYYEKYYWNADHSGPKANNILPAPQEASTNTLRPGARKVVDLNGDGAITKDDLYYAGDMAPRLTFGFKLGLEWKGIDFSAFFQGVGKQVLLRGGYLAAPWTTNYVLQNKNFAGKMWSENNRDAEYTIASRDQNFNKWNYNNKDVSVQNNRYVRLKSLVVGYSLPQKWISKAGLSKLRVYFSGDDLWEWTKVKDGYDPEYGENSNNTFPFSRLLTFGVDVTF” the “soluble on expression in E. coli” value was “not soluble”.
For “IKGSTDMDHSGFIQKFIALYGGLNKHTLHHLSEIYSYDVQFIDAVHEINGIDELTDYFTHLYTNLIECKFTIHHVIEDINLTQGEATLFWTMNYKHPKIGKGKSISVEGVSHIKFNDKVFYHRDFLDMGQMVYEHLPLIGPMVKFIKKRVQA”, the “soluble on expression in E. coli” value was “soluble”.
In the case of “ILYLHGGYNTLQPSPFHWRLLDKLTLNTLHEVVLPIYPKSPDYHYLETFKAIRDVYNQLVEEVGANNIVMMGDGSGGGLALSFVQSLINDNQEVPRKLFLLSPLLDATLTNPNITKTLEENDILVSRFGVHQLMKSWTNDLPLSDARISPLYGTLKGLPPIYMYGGGREILSPDMHAFTHALEECGNDVEFKEYPKMVHDFPIYPIRQSHKVLKHITKSI”, the “soluble on expression in E. coli” value is reported as “not soluble”.
